Patent US20250171542A1 (ADEPT THERAPEUTICS, published 2025)

B1: 74F4 (antibody, human IgG1, V domains shown)
VH: QEQLEESGGGLVQPEGSLTLTCTASGFSFSGDYYMSWVRQAPGKGLEWIASIYTGSLNTYYATWAKGRFTISLTSSTTVTLQMTSLTAADTATYFCARRNKNADYGHFDLWGPGTLVTVSS
VL: YDMTQTPASVEVAVGGTVTIKCQASQSINDRLAWYQQSPGQPPKLLIYGASTLASGVPSRFKGSGSGTDFTLTISDLECADAATYYCQQGWTVSSLDNAFGGGTEVVAK
B2: 55H3/76D6 (antibody, human IgG1, V domains shown)
VH: QEQLEESGGGLVQPEGSLTLTCTVSGFSFSGDYYMSWVRQAPGKGLEWVASIYTGSLNSYYATWAKGRFTISLTSSTTVTLQMTSLTAADTATYFCARRNKNADYGHFDLWGPGTLVTVSS
VL: YDMTQTPASVEVAVGGTVTIKCQASESINDRLAWYQQKPGQPPKLLIYAASTLASGVPSRFRGSGSGTDFTLTISDLECADAATYYCQQGWTVSSLDNAFGGGTEVVAM
B3: 56E5 (antibody, human IgG1, V domains shown)
VH: QEQLEESGGGLVQPEGSLTLTCTASGFSFSGDYYMSWVRQAPGKGLEWIASIYTGSLNTYYATWAKGRFTISLTSSTTVTLQMTSLTAADTATYFCARRHKNADYGHFDLWGPGTLVTVSS
VL: YDMTQTPGSVEVAVGGTVTIKCQASQSINDRLAWYQQTPGQPPKLLIYGASTLASGVPSRFKGSGSGTEFTLTISDLECADAATYYCQQGWTVSSLDNAFGGGTEVVAK
B4: 57B10 (antibody, human IgG1, V domains shown)
VH: QEQLEESGGGLVQPEGSLTLTCTASGFSFSDDYYMSWVRQAPGKGLEWIASIYTGSLNTYYATWAKGRFTISLTSSTTVTLQMTSLTAADTATYFCARRNKNADWGHFDLWGPGTLVTVSS
VL: YDMTQTPASVEVAVGGTVTIKCQASQSISTALAWYQQKPGQPPKLLIYAASTLASGVPSRFRGSGSGTDFTLTISDLECADAATYYCQQGWTVSSLDNAFGGGTEVVAM
B5: 57F11 (antibody, human IgG1, V domains shown)
VH: QEHLEESGGGLVQPEGALTLTCTASGFSFSGDYYMSWVRQAPGKGLEWIASIYTGSLNTYYATWAKGRFTISIASSTTVTLQVTSLTAADTATYFCARRTKNGDYGYFDLWGPGTLVTVSS
VL: YDMTQTPASVEVAVGGTVTIKCQASQSINDRLAWYQQKPGQPPKLLIYAASTLASGVPSRFKGSGSGTEFTLTISDLECADAATYYCQQGWTVSSLENAFGGGTEVVAK
B6: 62E6 (antibody, human IgG1, V domains shown)
VH: QEQLEESGGDLVKPEGSLTLTCTASGFSFSGDYYMSWVRQAPGKGLEWIASIYTGSLNIYYATWAKGRFTISLTSSTTVTLQMTSLTAADTATYFCARRNKNADYGHFDLWGPGTLVTVSS
VL: YDMTQTPASVEVAVGGTVTIKCQASQSINDRLAWYQQKPRQPPKLLIYGASTLASGVPSRFKGSGSGTEFTLTISDLECVDAATYYCQQGWTVSSLDNAFGGGTEVVAK
B7: 69D10 (antibody, human IgG1, V domains shown)
VH: QEQLEESGGGLVQPEGSLTLTCTASGFSFSGDWYMSWVRQAPGKGLEWIASIYSGSLNTYYATWAKGRFTVSLTSSTTVTLQMTSLTAADTATYFCARRNKNADYGHFDLWGPGTLVTVSS
VL: YDMTQTPASVEVAVGGTVTIKCQASQSIGNALAWYQQKPGQPPKLLIYATSTLASGVPSRFKGSGSGTEFTLTISDLECGDAATYYCQQGWTVSSLDNAFGGGTEVVAK
B8: 73C8 (antibody, human IgG1, V domains shown)
VH: QEQLEESGGGLVQPEGSLTLTCTVSGFSFSGDYYMSWVRQAPGKGLEWVASIYTGSLNTYYATWAKGRFTISLTSSTTVTLQMTSLTAADTATYFCARRNKNADYGHFDLWGPGTLVTVSS
VL: YDMTQTPASVEVAVGGTVTIKCQASQSINDRLAWYQQKPGQPPKLLIYAASTLASGVPSRFRGSGSGTDFTLTISDLECADAATYYCQQGWTVSSLDNAFGGGTEVVAM

Columns and labels:
[1] = target: T1, human PD-L1 expressed on cell surface (human, UniProt Q9NZQ7 19-290); assay: flow cytometry, MDA-MB-231-GFP cells
T1 construct: also called cell surface PD-L1
T1 sequence (Q9NZQ7 19-290 limits assumed): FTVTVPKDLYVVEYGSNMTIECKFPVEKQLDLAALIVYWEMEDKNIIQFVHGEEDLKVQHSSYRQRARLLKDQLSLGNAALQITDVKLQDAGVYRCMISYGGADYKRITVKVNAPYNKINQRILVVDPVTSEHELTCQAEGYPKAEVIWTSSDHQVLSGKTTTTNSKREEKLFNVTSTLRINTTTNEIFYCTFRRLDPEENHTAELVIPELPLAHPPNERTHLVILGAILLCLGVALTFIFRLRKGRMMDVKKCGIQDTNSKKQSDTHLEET
Procedure: Cells were then resuspended in FACS buffer (1×DPBS/1% FBS) at 10⁶/ml concentration. One hundred microliter (100 μl) of cells were aliquoted into a single well in 96 well plates. The antibodies to be tested were serially diluted at 1:3 fold starting at 15 ug/mL and were then added into each well. The antibodies were mixed with cells and the mixtures were incubated on ice for 1 hour. […] After washing with FACS buffer, stained cells were resuspended at diluted […] (Biolegend, Cat #420404, used at 1:100 dilution) and analyzed on Guava 11HT (Luminex). Data was analyzed using Flowjo software.
(§1) Anti-HEL isotype control (Biolntron) was used as negative control.

[2] = target: T1, human PD-L1 expressed on cell surface; assay: cell-based or functional assay
[3] = target: T2, human PD-L1-His (Sino Biological, Cat #10084-H08H) (human, UniProt Q9NZQ7 19-238); assay: ELISA, coated human PD-L1-His
T2 construct: Bought protein; also called human PD-L1 ECD-His; recombinant human PD-L1-His protein; not shown: His tag
T2 sequence (Q9NZQ7 19-238): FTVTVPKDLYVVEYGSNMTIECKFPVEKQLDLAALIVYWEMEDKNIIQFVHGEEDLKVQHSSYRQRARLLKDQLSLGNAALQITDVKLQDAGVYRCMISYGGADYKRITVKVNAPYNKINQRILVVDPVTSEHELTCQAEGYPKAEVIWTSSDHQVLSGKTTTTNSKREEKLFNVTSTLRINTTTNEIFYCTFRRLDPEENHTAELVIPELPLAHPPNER
Procedure: (§2) Briefly, Maxisorp plates (Nunc) were coated with 100 ul/well of 0.5 μg/ml human PD-L1-His (Sino Biological, Cat #10084-H08H) or cynomolgus PD-L1-His (Sino Biological, Cat. 90251-C08H) protein diluted in 1×PBS (GIBCO) overnight at 4° C. Plates were washed three times with 300 μl/well washing buffer (1×PBST, diluted from 20×PBST (Thermo Scientific) with distilled water)) and then blocked with 300 μl/well of blocking buffer (1×PBST/I % BSA) for 2 hours at RT on shaker (100 rpm). Plates were washed and added with 100 μl/well of testing antibodies, which were serial diluted with assay buffer (PBST/1% BSA). The antibodies were incubated at room temperature for 2 hours on plate shaker at 100 rpm. Plates were washed. One hundred microliter of horseradish peroxidase (HRP) conjugated detection antibody was added into each well and incubated at room temperature for 1 hour on plate shaker at 100 rpm. Plates were washed and added with 100 μl/well TMB substrate for color development at room temperature in dark for up to 10 minutes. After addition of 50 μl/well of stop solution (1N H₂SO₄), plates were read at 450 nm on a plate reader (SpectraMax M5).
as §1

[4] = target: T3, cynomolgus PD-L1-His (Sino Biological, Cat. 90251-C08H) (cynomolgus, UniProt Q9NZQ7 19-238 (human entry)); assay: ELISA, coated cyno PD-L1-His
T3 construct: Bought protein; also called Cyno PD-L1; Cynomolgus PD-L1 ECD-His; not shown: His tag
T3 sequence (Q9NZQ7 other isoform, or with tags, fused parts or gaps C08H C08H limits assumed): as the sequence (Q9NZQ7 19-238) above, with A33T, A34S, S62N, R68Q, Q82R, F173L, T185A, T192I, H215L counted along it
Procedure: as §2, §1

[5] = target: T1, human PD-L1 expressed on cell surface; assay: cell-based or functional assay; remark: listed apart in the source

Row | Binder | EC50 [1] [nM] | Internalization (%), FACS, 0.25 µg/ml, 2 h [2] [%] | Internalization (%), FACS, 0.25 µg/ml, 4 h [2] [%] | Internalization (%), FACS, 0.5 µg/ml, 2 h [2] [%] | Internalization (%), FACS, 0.5 µg/ml, 4 h [2] [%] | Internalization (%), FACS, 1 µg/ml, 2 h [2] [%] | Internalization (%), FACS, 1 µg/ml, 4 h [2] [%] | Internalization (%), FACS, 2 µg/ml, 2 h [2] [%] | Internalization (%), FACS, 2 µg/ml, 4 h [2] [%] | EC50 [3] [nM] | EC50 [4] [nM] | IC50 (nM), Promega PD-1/PD-L1 blockade reporter assay [5] [nM]
1 | B1 | 1.44 | 19 | 15.3 | 22.5 | 15.7 | 19.5 | 18.2 | 24.1 | 22 | 0.0157 | 0.0125 | 
2 | B2 | 2.93 | 22.9 | 20.6 | 20.8 | 19.9 | 22.1 | 17.9 | 24.2 | 22.2 | 0.0199 | 0.0126 | 0.97
3 | B3 | 1.29 | 22.9 | 22.1 | 20.7 | 19.8 | 23.8 | 20.6 | 24.7 | 26.5 | 0.0184 | 0.0078 | 0.41
4 | B4 | 4.82 | 19.3 | 16.5 | 11.1 | 21.7 | 12.7 | 15.6 | 19.2 | 22.1 | 0.0186 | 0.0071 | 0.47
5 | B5 | 1.24 | 17.9 | 21.3 | 19.7 | 14.7 | 16.7 | 16.8 | 14.5 | 15.4 | 0.0216 | 0.0138 | 
6 | B6 | 2.03 | 22.3 | 21 | 12.2 | 24 | 16.4 | 17.7 | 16.1 | 17.9 | 0.024 | 0.0188 | 0.41
7 | B7 | 2 | 18.2 | 15.9 | 16.2 | 18 | 15.9 | 18.2 | 17.7 | 21.2 | 0.0215 | 0.0177 | 
8 | B8 | 1.81 | 22 | 15.6 | 17.8 | 23 | 19.5 | 15.7 | 22.5 | 21.7 | 0.016 | 0.0121 | 
